Consider nine molecules from patent US20220324928, “Zinc Finger Protein Transcription Factors for Repressing Alpha-Synuclein Expression” (Sangamo Therapeutics, Inc., published 2022).

Where only a bound is given, the exact number is not on record here.

Some targets named below: ZFP-TF SBS-82150 (Artificial Sequence); ZFP-TF SBS-82197 (Artificial Sequence); ZFP-TF SBS-82090 (Artificial Sequence); ZFP-TF SBS-82225 (Artificial Sequence); ZFP-TF SBS-82294 (Artificial Sequence); ZFP-TF SBS-82215 (Artificial Sequence); ZFP-TF SBS-82092 (Artificial Sequence); ZFP-TF SBS-82190 (Artificial Sequence); ZFP-TF SBS-82107 (Artificial Sequence).
Common to all, as to assay: cell_activity; SNCA mRNA repression at highest dose
Common to all, as to conditions: tags: NLS, C-terminal KOX1 KRAB

Sequence of ZFP-TF SBS-82215 (Artificial Sequence) (chain, as listed by the source): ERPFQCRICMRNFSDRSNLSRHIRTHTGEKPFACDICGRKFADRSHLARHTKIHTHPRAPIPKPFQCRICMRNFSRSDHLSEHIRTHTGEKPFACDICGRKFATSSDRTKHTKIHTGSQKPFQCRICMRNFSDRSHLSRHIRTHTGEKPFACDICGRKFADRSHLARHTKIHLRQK
Sequence of ZFP-TF SBS-82107 (Artificial Sequence) (chain, as listed by the source): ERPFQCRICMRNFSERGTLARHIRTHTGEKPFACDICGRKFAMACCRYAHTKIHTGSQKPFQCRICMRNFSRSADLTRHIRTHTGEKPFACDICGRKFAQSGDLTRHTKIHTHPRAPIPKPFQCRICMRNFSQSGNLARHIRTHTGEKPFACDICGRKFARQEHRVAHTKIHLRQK
Sequence of ZFP-TF SBS-82225 (Artificial Sequence) (chain, as listed by the source): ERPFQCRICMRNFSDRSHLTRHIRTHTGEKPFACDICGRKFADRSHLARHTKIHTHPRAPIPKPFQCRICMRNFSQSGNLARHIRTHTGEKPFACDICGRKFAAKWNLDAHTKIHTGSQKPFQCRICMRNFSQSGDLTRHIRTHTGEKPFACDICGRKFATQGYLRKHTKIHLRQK
Sequence of ZFP-TF SBS-82190 (Artificial Sequence) (chain, as listed by the source): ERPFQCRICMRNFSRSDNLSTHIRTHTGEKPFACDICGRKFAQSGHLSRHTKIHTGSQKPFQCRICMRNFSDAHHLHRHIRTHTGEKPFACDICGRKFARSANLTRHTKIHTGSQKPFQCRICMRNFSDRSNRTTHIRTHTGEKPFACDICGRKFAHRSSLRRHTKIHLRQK
Sequence of ZFP-TF SBS-82092 (Artificial Sequence) (chain, as listed by the source): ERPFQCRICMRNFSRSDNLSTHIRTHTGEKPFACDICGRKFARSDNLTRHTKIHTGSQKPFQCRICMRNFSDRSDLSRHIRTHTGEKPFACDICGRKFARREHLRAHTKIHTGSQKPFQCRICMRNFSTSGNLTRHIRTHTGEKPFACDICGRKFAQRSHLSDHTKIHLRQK
Sequence of ZFP-TF SBS-82197 (Artificial Sequence) (chain, as listed by the source): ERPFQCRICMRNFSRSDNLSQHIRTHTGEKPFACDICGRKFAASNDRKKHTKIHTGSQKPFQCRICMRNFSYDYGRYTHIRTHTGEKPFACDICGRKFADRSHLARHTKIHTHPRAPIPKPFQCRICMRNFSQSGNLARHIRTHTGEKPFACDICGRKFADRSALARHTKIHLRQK
Sequence of ZFP-TF SBS-82090 (Artificial Sequence) (chain, as listed by the source): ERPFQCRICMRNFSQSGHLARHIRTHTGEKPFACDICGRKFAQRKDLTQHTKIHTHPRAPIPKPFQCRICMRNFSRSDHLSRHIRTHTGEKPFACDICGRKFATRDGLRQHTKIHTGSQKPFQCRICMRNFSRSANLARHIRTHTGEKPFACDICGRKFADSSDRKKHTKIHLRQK
Sequence of ZFP-TF SBS-82150 (Artificial Sequence) (chain, as listed by the source): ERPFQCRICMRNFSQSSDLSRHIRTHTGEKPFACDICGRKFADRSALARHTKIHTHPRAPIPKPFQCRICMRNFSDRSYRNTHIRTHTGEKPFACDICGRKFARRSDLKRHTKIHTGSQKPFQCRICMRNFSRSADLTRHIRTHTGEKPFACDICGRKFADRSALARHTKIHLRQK
Sequence of ZFP-TF SBS-82294 (Artificial Sequence) (chain, as listed by the source): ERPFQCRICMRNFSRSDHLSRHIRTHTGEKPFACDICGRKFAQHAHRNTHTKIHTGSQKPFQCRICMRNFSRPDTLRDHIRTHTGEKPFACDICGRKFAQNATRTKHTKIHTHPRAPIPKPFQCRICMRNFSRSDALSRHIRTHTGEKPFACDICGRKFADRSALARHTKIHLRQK

B1: SNCA site 82150 (dsDNA)
DNA 1: CGTCGCGGCGCTCGGTCGCTC
DNA 2: GAGCGACCGAGCGCCGCGACG
The molecule B1 gave an activity in the data set with ZFP-TF SBS-82150 of no less than 95 % repression.

B2: SNCA site 82197 (dsDNA)
DNA 1: CGTCGAATGGCCACTCCCAGT
DNA 2: ACTGGGAGTGGCCATTCGACG
For the molecule B2, the activity with ZFP-TF SBS-82197 is no less than 95 % repression.

B3: SNCA site 82090 (dsDNA)
DNA 1: ATCCGAGATAGGGACGAGGAG
DNA 2: CTCCTCGTCCCTATCTCGGAT
Consider B3, for which the activity with ZFP-TF SBS-82090 is no less than 95 % repression.

B4: SNCA site 82225 (dsDNA)
DNA 1: GAGCGCACAGGAAGGGCGGAG
DNA 2: CTCCGCCCTTCCTGTGCGCTC
On to B4, for which the activity with ZFP-TF SBS-82225 was no less than 95 % repression.

B5: SNCA site 82294 (dsDNA)
DNA 1: GGTCGTGGGCACCGGGAGGGG
DNA 2: CCCCTCCCGGTGCCCACGACC
In the data set with ZFP-TF SBS-82294, B5 returned an activity of no less than 95 % repression.

B6: SNCA site 82215 (dsDNA)
DNA 1: AGGCGGCACCCGGGGGGGACT
DNA 2: AGTCCCCCCCGGGTGCCGCCT
In the data set with ZFP-TF SBS-82215, B6 yielded an activity of no less than 95 % repression.

B7: SNCA site 82092 (dsDNA)
DNA 1: CCGAGATAGGGACGAGGAGC
DNA 2: GCTCCTCGTCCCTATCTCGG
For the molecule B7, in the data set with ZFP-TF SBS-82092, the activity is no less than 95 % repression.

B8: SNCA site 82190 (dsDNA)
DNA 1: CGCTCACGAGGGTGGAAAGG
DNA 2: CCTTTCCACCCTCGTGAGCG
Consider B8, for which the activity in the data set with ZFP-TF SBS-82190 was no less than 95 % repression.

B9: SNCA site 82107 (dsDNA)
DNA 1: CAGGGAAAGCAGCGAGCGCCG
DNA 2: CGGCGCTCGCTGCTTTCCCTG
As to B9, the activity with ZFP-TF SBS-82107 was no less than 95 % repression.
